US11667697 (VANDERBILT UNIVERSITY, dated 2023)

Experiments:
VACV A27 protein [1] = target: T1, VACV A27 protein (vaccinia virus, UniProt P11258 1-110); assay: lysate ELISA
T1 sequence: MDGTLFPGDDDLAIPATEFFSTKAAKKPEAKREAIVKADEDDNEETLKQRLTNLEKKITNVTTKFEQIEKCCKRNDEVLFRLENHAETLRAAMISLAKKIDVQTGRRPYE

VACV A27 protein [2] = target: T1, VACV A27 protein; assay: purified antigen ELISA
VACV D8 protein [3] = target: T2, VACV D8 protein (vaccinia virus, UniProt P04195 1-261); assay: lysate ELISA
T2 sequence: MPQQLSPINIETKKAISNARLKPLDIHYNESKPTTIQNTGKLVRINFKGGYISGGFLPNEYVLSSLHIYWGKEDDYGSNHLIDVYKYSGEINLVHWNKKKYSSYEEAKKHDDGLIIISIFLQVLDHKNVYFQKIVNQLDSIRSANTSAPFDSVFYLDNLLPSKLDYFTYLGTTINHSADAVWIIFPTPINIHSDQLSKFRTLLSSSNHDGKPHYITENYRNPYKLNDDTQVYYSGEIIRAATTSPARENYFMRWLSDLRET

VACV B5 protein [4] = target: T3, VACV B5 protein (vaccinia virus, UniProt Q01227 20-275); assay: purified antigen ELISA
VACV B5 protein [5] = target: T3, VACV B5 protein; assay: lysate ELISA
VACV B5 protein [6] = target: T3, VACV B5 protein; assay: cell-based or functional assay
VACV A27 protein [7] = target: T1, VACV A27 protein; assay: cell-based or functional assay
VACV D8 protein [8] = target: T2, VACV D8 protein; assay: cell-based or functional assay
VACV A33 protein = VACV A33 protein (vaccinia virus, UniProt P68617 58-185); assay: purified antigen ELISA

B1: VACV-303 (antibody, V domains shown)
VH: EVQLLESGGGLVQPGGSLRLSCAASGFTFSSYAMSWVRQAPGKGLEWVSAISGTGGNTYYADSVKGRFTISRDKSKNTLYLQMHSLRAEDTAVYYCATSLIWWLQSDYWGQGTLVTVSS
VL: DIQMTQSPSSLSASVGDRVTITCRASQSIASYLIWYQQKPGNAPKLLIYAASSLQSGVPSRFSGSGSGTDFTLTISSLQPEDFATYYCQQSYSTPQTFGQGTKVDIK
notes: human IgG1, anti-A27
EC50 (VACV A27 protein [1]): 0.05 µg/mL
EC50 (VACV A27 protein [2]): 0.02 µg/mL

B2: MPXV-30 (antibody, V domains shown)
VH: QVQLVQSGAEVKKPGSSVKVSCKVSGGTFSSLAINWVRQAPGQGLEWMGGIIPIFGKANYAQKFQGRVSIIADESTSTAYMDLSSLRFEDTAVYYCATGGNIRVHDFDIWGQGTLVIVSS
VL: not shown
notes: human IgG1, anti-D8
EC50 (VACV D8 protein [3]): 0.004 µg/mL

B3: VACV-1 (antibody, V domains shown)
VH: EVQLVESGGGLVQPGESLKISCAASGFTFSSFSMNWVRQAPGKGLEWVSYISSSSSTIYYADSVKGRFTISRDNAKNSLYLQMNSLRDEDTAVYYCARRSVGCSGGNCYAYYYGMDVWGQGTTVTVS
VL: not shown
notes: human IgG1, anti-B5
EC50 (VACV B5 protein [4]): 0.02 µg/mL

B4: MPXV-43 (antibody, V domains shown)
VH: QVQLVQSGAEVKKPGASVKVSCKASGYTFTKYTIHWVRQAPGQRLEWVGGIYAGYGNTRYSQKFQGRVTITRDTSASTAYMELSSLRSEDTAVYFCARDFEDFDSWTGYYSWLHWGQGTLVTVSS
VL: EIVLTQSPGTLSLSPGERATLSCRASQSVSSTYLAWYQQKPGQAPRLLIYGASSRATGIPDRFSGSGSGTDFTLTITRLEPEDFAMYFCQQYDSSPSITFGQGTRLEIK
notes: human IgG1, anti-B5
EC50 (VACV B5 protein [5]): 0.011 µg/mL
EC50 (VACV B5 protein [4]): 10.1 µg/mL

B5: MPXV-2 (antibody, V domains shown)
VH: QVQLVQSGAEVKKPGASVKVSCKTSGYTFTTYAVHWVRQAPGQRLEWMGWINPGDGDTRYAQKFQDRVTISSDTSATTVYMELSSLRSEDTAVYFCARPRASLLRYFDWLFEQWGQETLVTVSS
VL: EIVLTQSPGTLSLSPGDRATLSCGASQSIHHNYVAWYQQRPGQAPRLLIFGASSRATGIPDRFTGSGSGTEFTLTINRLEPEDFAVYYCQQYGNSVPYSFGQGTKVDIK
notes: human IgG1, anti-B5
EC50 (VACV B5 protein [5]): > 6 µg/mL
EC50 (VACV B5 protein [4]): 0.03 µg/mL
PRNT Emax, VACV EV+C' (VACV B5 protein [6]): 67%
PRNT IC50, VACV EV+C' (VACV B5 protein [6]): 1 µg/mL

B6: VACV-302 (antibody, V domains shown)
VH: QLQLQESGPGLVKPSETLSLTCTVSGGSIISSSYYWGWIRQPPGKGLEWLGSIYYSGSTYYNPSLKSRVTISVDTSKNQFSLKVTSVTAADTAVYYCARQISKAAAGSIDYWGQGTLVTVS
VL: not shown
notes: human IgG1, anti-A27
EC50 (VACV A27 protein [1]): 0.01 µg/mL
EC50 (VACV A27 protein [2]): 0.08 µg/mL
PRNT Emax, VACV MV (VACV A27 protein [7]): 81%
PRNT Emax, VACV MV+C' (VACV A27 protein [7]): 53%
PRNT IC50, VACV MV (VACV A27 protein [7]): 12.3 µg/mL
PRNT IC50, VACV MV+C' (VACV A27 protein [7]): 0.1 µg/mL

B7: VACV-8 (antibody, V domains shown)
VH: QVQLQQWGAGLLKPSETLSLTCAGYGGSFSGYFWSWIRQPPGKGLEWIGEINHSGSTDYNPSLKSRVTISLDTSKTQFSLKLSSVTAADTAVYYCARVMTGITNYYYYYGMDVWGQGTTVTF
VL: DIQLTQSPSFLSASVGDRVTITCRASQDISSYLAWYQQKPGKAPKLLIYAASTLQSGVPSRFSGSESGTEFTLTISSLQPENFATYYCQHLNSYPRGYTFGQGTKVDIK
notes: human IgG1, anti-D8
EC50 (VACV D8 protein [3]): 0.04 µg/mL
PRNT Emax, VACV MV+C' (VACV D8 protein [8]): 74%
PRNT IC50, VACV MV+C' (VACV D8 protein [8]): 0.3 µg/mL

B8: VACV-136 (antibody, V domains shown)
V domain 1: QVTLKESGPVLVNPTETLTLTCTVSGFSLSNARMRVSWIRQPPGKALEWLAHIFSNDEKSYSTSLKSRLTISKDTSKSQVVLTMTNMDPVDTASYYCARMRGEYNSYYFDSWGQGTLVTVS
V domain 2: SYELTQPPSVSVSPGQTARITCSGDALPNQYAYWYQQKPGQAPVLVIYKDSERPSGIPERFSGSSSGTTVTLTISGVQAEDEADYYCQSADSSGTSVVFGGGTQVTV
notes: human IgG1, anti-D8
EC50 (VACV D8 protein [3]): 0.06 µg/mL
PRNT Emax, VACV MV+C' (VACV D8 protein [8]): 84%
PRNT IC50, VACV MV+C' (VACV D8 protein [8]): 0.4 µg/mL

B9: VACV-56 (antibody, V domains shown)
VH: QVQLQQWGAGLLKPSETLSLTCAVYGGSFSGYYWSWIRQPPGKGLEWIGEINHSGSTNYNPSLKSRVTISVDTSKSQFSLKLSSVTAADTAVYYCARATQGSGTYKLFFYSYGMDVWGQGTTVTVSS
VL: not shown
notes: human IgG1, anti-D8
EC50 (VACV D8 protein [3]): 0.01 µg/mL
PRNT Emax, VACV MV+C' (VACV D8 protein [8]): 81%
PRNT IC50, VACV MV+C' (VACV D8 protein [8]): 0.04 µg/mL

B10: VACV-154 (antibody, V domains shown)
VH: EVQLLESGGGLVQPGESLRLSCAASGFTLRNYAMSWVRQTPGKGLEWVSAISGSGGSTYYADSVKGRFTISRDTSKNTLYVQMNSLRAEDTAVYYCAKIRLDSSGYSGAFDIWGQGTRVTVSS
VL: SYELTQPPSVSVSPGQTARITCSGDALPKQYASWYQQKPGQAPVLVIYKDSERPSGIPERFSGSSSGTTVTLTISGVQAEDEADYYCQSADSSGTYPVVFGGGTQLTVL
notes: human IgG1, anti-A27
EC50 (VACV A27 protein [1]): > 0.1 µg/mL
EC50 (VACV A27 protein [2]): 0.06 µg/mL

B11: MPXV-39 (antibody, V domains shown)
VH: QVQLQQWGAGLLKPSETLSLTCAIYGGSLSGQYWSWIRQPPGRGLEWIGEIHHKGRTNYNPSLKSRVTISIDTSQRQFSLRLTSVSAADTAVYYCASGNYRLGQGTLVTF
VL: DVVLTQSPLTLPVTLGQPASISCRSSQSLVYSDGDTYLNWFQQRPGQAPRRLIYKVSKRDFGVPDRFSGSGSGTDFTLRISRVEAEDVGVYYCMQGTHWPRTFGQGTQVDIK
notes: human IgG3, anti-A33
EC50 (VACV A33 protein): 0.07 µg/mL

B12: MPXV-61 (antibody, V domains shown)
V domain 1: QVQLVQSGAEVKKPGSSVKVSCKASGETFSRYAFSWVRLAPGQGLEWLGRIIPFIDIPNYAQKFQGRVTITADKSTSTAYMELSSLRSEDTAVYYCASSLPSTYYFGSGNYPWGNWLDPWGQGTLVTVSS
V domain 2: QSVVTQPPSVSAAPGQNVTISCSGSSSNIGNNYVSWYHQLPGTAPKLLIYDNDKRPSGIPDRFSGSKSGTSATLGITGLQTGDEADYYCGTWDSSLSEVVFGGGTQVTVL
notes: human IgG1, anti-D8
EC50 (VACV D8 protein [3]): 0.007 µg/mL

B13: VACV-300 (antibody, V domains shown)
V domain 1: QVQLVQSGAEVKKPGSSVKVSCKASGGTFSSYAISWVRQAPGQGLEWMGGIIPIFGTANYAQKFQGRVTITADESTGTAYMELTSLRSEDTAIYYCARASEQWLASINWFDPWGQGTLVTVSS
V domain 2: QSALTQPASVSGSPGQSITISCTGTSSDVGSYNLVSWYQQHPGKAPKLMIYEVSKRPSGVSNRFSASKSGNTASLTISGLQAEDEADYYCCSYAGSSTLVFGGGTQVTVL
notes: human IgG1, anti-A27
EC50 (VACV A27 protein [1]): > 0.37 µg/mL
EC50 (VACV A27 protein [2]): 0.22 µg/mL

B14: VACV-230 (antibody, V domains shown)
VH: QVQLVQSGAEVKKPGASVKVSCKVSGYTLTELSMHWVRQAPGKGLEWLGGFDPEDGETIYAQKFQGRVTMTEDTSTDTAYMELSSLRSEDTAVYYCARESWLRGFDYWGQGTLVTVS
VL: not shown
notes: human IgG1, anti-D8
EC50 (VACV D8 protein [3]): 0.6 µg/mL
PRNT Emax, VACV MV+C' (VACV D8 protein [8]): 77%
PRNT IC50, VACV MV+C' (VACV D8 protein [8]): 0.1 µg/mL

B15: VACV-282 (antibody, V domains shown)
VH: EVQLVESGGGLVKPGGSLRLSCAASGFTFSSYSMNWVRQAPGKGLEWVSSISSISSYIYYADSVKGRFTISRDNAKNSLYLQMNSLRAEDTAVYYCARDRPRSRPNSGSYFWYYYGMDVW
VL: SYELTQPPSVSVAPGQTARITCGGNNIGSKSVHWYQQKPGQAPVLVVYDDSDRPSGIPERFSGSNSGNTATLTISRVEAGDEADYYCQVWDSNSDHRVSA
notes: human IgG1, anti-B5
EC50 (VACV B5 protein [4]): 0.155 µg/mL

B16: VACV-301 (antibody, V domains shown)
VH: EVQLLESGGGLVQPGGSLRLSCAASGFSFSSYAMSWVRQAPGKGLEWVSGIGNSGDRTFYADSAKGRFTIFRDNSNNRLYLQMNSLRAADTAVYYCAKWGRFESGAFWGQGVLVTVSS
VL: SYELTQSPSVSVSPGQTARITCSGDALPEQYAYWYQQKPGQAPVLVIYKDSERPSGIPERFSGSGSGTTVTLTITGVQAEDEADYYCQSADNSGTYEVFGTGTKVTVL
notes: human IgG3, anti-A27
EC50 (VACV A27 protein [1]): > 21 µg/mL
EC50 (VACV A27 protein [2]): 0.03 µg/mL
PRNT Emax, VACV MV (VACV A27 protein [7]): 61%
PRNT Emax, VACV MV+C' (VACV A27 protein [7]): 77%
PRNT IC50, VACV MV (VACV A27 protein [7]): 0.5 µg/mL
PRNT IC50, VACV MV+C' (VACV A27 protein [7]): 0.1 µg/mL

B17: MPXV-96 (antibody, V domains shown)
VH: QVQLQQWGAGLLISSETLSLTCGVYGGSFSGYYWTWIRQPPGKGLEWIGEINYVGSTNYNPSLKSRVTMSVDTSKNHFSLSLSSVTAADTAVYYCARGLRGNSVCFDWGPGTLV
VL: ELVMTQSPATLSVSPGERASLSCRASQSVSSNLAWYQQKPGQAPRLLIYGASTRATGLPARFSGSGSGTEFTLTISSLQSEDFAIYYCQQYNNWPRTFGQGTKVDI
notes: human IgG1, anti-D8
EC50 (VACV D8 protein [3]): 0.001 µg/mL

B18: VACV-59 (antibody, V domains shown)
VH: QVQLVQSGGGLVKPGGSLRLSCAASGFTFSDYYMSWIRQAPGKGLEWVSYISTSGSTIYYADSVKGRFTISRDNAKNSLYLQMNSLRAEDTAMYYCARDGDGSGSYTPPYYYYGLDVWGQGTTVTVSS
VL: DIQMTQSPSSLSASVGDRVTITCRASQSIRNYLNWYQQKSGKAPKLLIYAASSLQSGVPSRFSGSGSGTDFTLTISSLHPEDFATYYCQQSYSTPPLTFGGGTKVEIK
notes: human IgG2, anti-B5
EC50 (VACV B5 protein [4]): 0.14 µg/mL
PRNT Emax, VACV EV+C' (VACV B5 protein [6]): 72%
PRNT IC50, VACV EV+C' (VACV B5 protein [6]): 0.2 µg/mL

B19: MPXV-12 (antibody, V domains shown)
VH: QVQLQQWGAGLLKPSETLSLTCAVYGGSFTNYYWSWIRQFPGKGLEYIGEIDHSGSANYNPSLKSRVTISLDTSKNQFSLRLSSVTAADTAVYFCARDVYGSGTYYWFDPWGQGTL
VL: DIQMTQSPTSLSASVGDRVTITCRASQRISSHLNWYQQKPGKAPKLLIYVASSLQSGVPSRFSGSGSGTDYTLTISSLQPEDFATYFCQQSYTTPYTFGQGTNLQMK
notes: human IgG3, anti-B5
EC50 (VACV B5 protein [5]): 5.85 µg/mL
EC50 (VACV B5 protein [4]): 0.1 µg/mL
